Results on 2 molecules are retold here after patent publication US8034784B2, “Method of suppressing or reducing IL-TIF-induced inflammation, or treating associated conditions thereof, using Zcytor16” (ZymoGenetics, Inc., priority 1999, dated 2011).

Test [1] has as its system BaF3/CRF2-4/zcytor11 cells. In words: Alamar Blue proliferation assay, BaF3/CRF2-4/zcytor11 cells. The format is cell-based, murine. The note with it: 3 days, then Alamar Blue. On the procedure:
BaF3, an interleukin-3 (IL-3) dependent pre-lymphoid cell line derived from murine bone marrow (Palacios and Steinmetz, Cell 41: 727-734, 1985; Mathey-Prevot et al., Mol. Cell. Biol. 6: 4133-4135, 1986), was maintained in complete media (RPMI medium (JRH Bioscience Inc., Lenexa, Kans.) supplemented with 10% heat-inactivated fetal calf serum, 2 ng/ml murine IL-3 (mIL-3) (R & D, Minneapolis, Minn.), 2 mM L-glutaMax-1™ (Gibco BRL), 1 mM Sodium Pyruvate (Gibco BRL), and PSN antibiotics (GIBCO BRL)). Prior to electroporation, CRF2-4/pZP7P was prepared and purified using a Qiagen Maxi Prep kit (Qiagen) as per manufacturer's instructions. […]
BaF3/CRF2-4/zcytor11 cells were spun down and washed in the complete media, described in Example 7A above, but without mIL-3 (hereinafter referred to as “mIL-3 free media”). […] Cells were then counted in a hemacytometer. […]
Proliferation of the BaF3/CRF2-4/zcytor11 cells was assessed using IL-TIF-CEE protein diluted with mIL-3 free media to 50, 10, 2, 1, 0.5, 0.25, 0.13, 0.06 ng/ml concentrations. […] Alamar Blue gives a fluourometric readout based on number of live cells, and is thus a direct measurement of cell proliferation in comparison to a negative control. […] Plates were read on the Finax™ plate reader (Molecular Devices Sunnyvale, Calif.) using the SoftMax™ Pro program, at wavelengths 544 (Excitation) and 590 (Emmission). […]
On the technique in general: Alamar Blue is a resazurin reagent that responds to reducing activity.

The target in test [2] is T1, IL-TIF (Homo sapiens, UniProt Q9GZX6).
T1 sequence (Q9GZX6 34-179): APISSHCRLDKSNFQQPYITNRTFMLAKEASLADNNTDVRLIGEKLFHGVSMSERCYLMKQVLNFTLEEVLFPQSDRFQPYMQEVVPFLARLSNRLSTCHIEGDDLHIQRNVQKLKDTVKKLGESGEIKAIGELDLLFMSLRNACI
In words: Inhibition of IL-TIF activation of luciferase reporter in MES 13 cells by zcytor16-Fc4. The format is cell-based. Particulars: even at the highest dose of IL-TIF used. On the procedure:
MES 13 cells (ATCC No. CRL-1927) were plated at 10,000 cells/well in 96-well tissue culture clusters (Costar) in DMEM growth medium (Life Technologies) supplemented with pyruvate and 10% serum (HyClone). Next day, the medium was switched to serum free DMEM medium by substituting 0.1% BSA (Fraction V; Sigma) for serum. This medium also contained the adenoviral construct KZ136 (below) that encodes a luciferase reporter mini-gene driven by SRE and STAT elements, at a 1000:1 multiplicity of infection (m.o.i.), i.e. 1000 adenoviral particles per cell. After allowing 24 h for the incorporation of the adenoviral construct in the cells, the media were changed and replaced with serum-free media. Human recombinant IL-TIF with or without a recombinant zcytor16-Fc4 fusion was added at the indicated final concentration in the well (as described in Table 11, below). Dilutions of both the IL-TIF and zcytor16-Fc4 were performed in serum-free medium. 0.1% BSA was added for a basal assay control. 4 h later, cells were lysed and luciferase activity, denoting activation of the reporter gene, was determined in the lysate using an Luciferase Assay System assay kit (Promega) and a Labsystems Luminoskan luminometer (Labsystems, Helsinki, Finland). Activity was expressed as luciferase units (LU) in the lysate.
The construction of the adenoviral KZ136 vector was as follows. […]
In general terms: Reporter assays use an easily measured gene product as a stand-in for the process of interest.

Test [3] deals with T1, IL-TIF. Put plainly: COS cell secretion trap binding assay. Set-up: expressed in transfected cells; host or cells: COS cells, pZP7 expression vector. The note with it: 1-3 μg/ml zcytor16sR-Fc4, COS cells transfected with human IL-TIF cDNA. On the procedure: COS cell transfections were performed as follows: A mixture of 0.5 μg DNA and 5 μl lipofectamine (Gibco BRL) in 92 ul serum free DMEM media (55 mg sodium pyruvate, 146 mg L-glutamine, 5 mg transferrin, 2.5 mg insulin, 1 μg selenium and 5 mg fetuin in 500 ml DMEM) was incubated at room temperature for 30 minutes and then 400 μl serum free DMEM media added. A 500 μl mixture was added onto COS cells plated on 12-well tissue culture plate at 1.5×10^5 COS cells/well and previously incubated for 5 hours at 37° C. An additional 500 μl 20% FBS DMEM media (100 ml FBS, 55 mg sodium pyruvate and 146 mg L-glutamine in 500 ml DMEM) was added and the plates were incubated overnight.
The secretion trap was performed as follows: Media was rinsed off cells with PBS and fixed for 15 minutes with 1.8% Formaldehyde in PBS. Cells were then washed with TNT (0.1M Tris-HCl, 0.15M NaCl, and 0.05% Tween-20 in H2O). Cells were permeated with 0.1% Triton-X in PBS for 15 minutes and washed again with TNT. […]

The target in test [4] is T1, IL-TIF. Put plainly: Antagonism of IL-TIF-induced proliferation of BaF3/CRF2-4/zcytor11 cells (Alamar Blue). Set-up: made in house; host or cells: BHK 570 cells, pHZ200-CEE vector, purified from conditioned media. The format is cell-based. Particulars: zcytor16 at 10 μg/ml; IL-TIF at all concentrations (0.06-50 ng/ml). An excerpt:
Purified IL-TIF-CEE (Example 19) was used to test for the presence of proliferation activity as described below. Purified zcytor16-Fc4 (Example 11) was used to antagonize the proliferative response of the IL-TIF in this assay as described below.
BaF3/CRF2-4/zcytor11 cells were spun down and washed in the complete media, described in Example 7A above, but without mIL-3 (hereinafter referred to as “mIL-3 free media”). The cells were spun and washed 3 times to ensure the removal of the mIL-3. Cells were then counted in a hemacytometer. Cells were plated in a 96-well format at 5000 cells per well in a volume of 100 μl per well using the mIL-3 free media.
Proliferation of the BaF3/CRF2-4/zcytor11 cells was assessed using IL-TIF-CEE protein diluted with mIL-3 free media to 50, 10, 2, 1, 0.5, 0.25, 0.13, 0.06 ng/ml concentrations. 100 μl of the diluted protein was added to the BaF3/CRF2-4/zcytor11 cells. […] Alamar Blue gives a fluourometric readout based on number of live cells, and is thus a direct measurement of cell proliferation in comparison to a negative control. […] Plates were read on the Finax™ plate reader (Molecular Devices Sunnyvale, Calif.) using the SoftMax™ Pro program, at wavelengths 544 (Excitation) and 590 (Emmission). […] The response, as measured, was approximately 15-fold over background at the high end of 50 ng/ml down to a 2-fold induction at the low end of 0.06 ng/ml. […]

B1: IL-TIF-CEE: human IL-TIF polypeptide (SEQ ID NO:15) containing C-terminal GluGlu (EE) tag, purified from BHK cells; ligand of zcytor16 (protein, listed as Homo sapiens)
chain: MAALQKSVSSFLMGTLATSCLLLLALLVQGGAAAPISSHCRLDKSNFQQPYITNRTFMLAKEASLADNNTDVRLIGEKLFHGVSMSERCYLMKQVLNFTLEEVLFPQSDRFQPYMQEVVPFLARLSNRLSTCHIEGDDLHIQRNVQKLKDTVKKLGESGEIKAIGELDLLFMSLRNACI
modifications: C-terminal GluGlu tag
notes: ligand of zcytor16
As for B1, in test [1] (IL-TIF-CEE 0.06 ng/ml), the “proliferative response (induction)” value worked out at 2 fold induction. In addition, the “proliferative response over background” value in test [1] (IL-TIF-CEE 50 ng/ml) is given as “approximately 15 fold over background”.

B2: zcytor16-Fc4: soluble zcytor16 polypeptide (residue 22 to 231 of SEQ ID NO:2; SEQ ID NO:13) fused to a C-terminal Fc4 tag (protein)
chain: TQSTHESLKPQRVQFQSRNFHNILQWQPGRALTGNSSVYFVQYKIYGQRQWKNKEDCWGTQELSCDLTSETSDIQEPYYGRVRAASAGSYSEWSMTPRFTPWWETKIDPPVMNITQVNGSLLVILHAPNLPYRYQKEKNVSIEDYYELLYRVFIINNSLEKEQKVYEGAHRAVEIEALTPHSSYCVVAEIYQPMLDRRSQRSEERCVEIPEPRSSDKTHTCPPCPAPEAEGAPSVFLFPPKPKDTLMISRTPEVTCVVVDVSHEDPEVKFNWYVDGVEVHNAKTKPREEQYNSTYRVVSVLTVLHQDWLNGKEYKCKVSNKALPSSIEKTISKAKGQPREPQVYTLPPSRDELTKNQVSLTCLVKGFYPSDIAVEWESNGQPENNYKTTPPVLDSDGSFFLYSKLTVDKSRWQQGNVFSCSVMHEALHNHYTQKSLSLSPGK
For B2, in the test with IL-TIF [2], the “antagonism of the response of MES 13 cells to IL-TIF” value is “effectively blocks the response to IL-TIF”. For the same molecule, in the test with IL-TIF [3], the “binding of zcytor16sR/Fc4 to COS cells transfected with human IL-TIF” value is “positive binding”. In addition, the “proliferative response to IL-TIF in the presence of zcytor16” value with IL-TIF [4] was “brought down to background”.
